This is an account of results in patent US20120201809A1 (COVX TECHNOLOGIES IRELAND, published 2012).

Where two headings read alike, the source gives them in different places.

The target of experiment [1] is T1, human IGF1R on cells (mouse 3T3 cells engineered to express human IGF1R); human colon adenocarcinoma Colo205 … (human, UniProt P08069 31-1367). In words: cell-based or functional assay.
Experiment [2] concerns the target T1, human IGF1R on cells (mouse 3T3 cells …). The experiment is described as follows: cell-based or functional assay. The source holds these as a separate data set.

B1: 2.12.1.fx antibody (anti-IGF1R antibody) (antibody, human IgG2, kappa, V domains shown)
VH: QVQLVESGGGLVKPGGSLRLSCAASGFTFSDYYMSWIRQAPGKGLEWVSYISSSGSTRDYADSVKGRFTISRDNAKNSLYLQMNSLRAEDTAVYYCVRDGVETTFYYYYYGMDVWGQGTTVTVSS
VL: DIQMTQSPSSLSASVGDRVTITCRASQDIRRDLGWYQQKPGKAPKRLIYAASRLQSGVPSRFSGSGSGTEFTLTISSLQPEDFATYYCLQHNNYPRTFGQGTKLVIKR
Turning to B1, the “% IGF1R downregulated” value in experiment [1] is 48%; in experiment [2] it was 36%.
